In PMC2288870:

Key:
[1] = target: 70-kD chymotryptic fragment of thrombospondin (human); assay: non-reducing SDS-PAGE
[2] = target: 50-kD chymotryptic fragment of thrombospondin (human); assay: non-reducing SDS-PAGE

stoichiometry N [1] | stoichiometry N [2] | Substance
3 | – | 70-kD chymotryptic fragment of thrombospondin (domain or fragment)
– | 3 | 50-kD chymotryptic fragment of thrombospondin (domain or fragment)
